# Results published in the nanobody polyreactivity screen of Harvey et al. (2022).
# Experiment: yeast display, Sf9 membrane polyspecificity reagent, FACS + sequencing; frameworks hold sequencing errors
# Procedure, shortened: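 Synthetic nanobody libraries on Saccharomyces cerevisiae BJ5465 were galactose-induced for 36–48 hours, stained 1 hour at 4 °C with 10% biotinylated, detergent-solubilized Sf9 membrane reagent and enriched on streptavidin microbeads. FACS then separated cells into low and high (top ~1%) gates by anti-HA (expression) and streptavidin (reagent binding) fluorescence. Genes were colony-PCR amplified, MiSeq 2 × 250 sequenced and CDR-length filtered. A clone's polyreactivity label is that of its gate of origin.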
row,Sequence,polyreactivity (PSR sort gate)
1,QVQLEESGGGLVQAGGSHRLSCAASGSIFGGNAMGWYRQAPGKERELVAAITQSGGRTYYADSVKGRCTISRDTAKNTVYLQMNSLKPEDTAVYYCNRVYKSQTTDSYPLSYYYWGQGTQVTVSS,high polyreactivity
2,QVQHVESGGGLVQAGGSLRLSCAASGRTFNAYTMGWYRQAPGKERELVAAITSSGGNTYYADSVKGRFTISRDNAKNSVYLQMNSLKPEDTAVYYCNTVYLYGTHDYWGQGTQVTGSS,low polyreactivity
3,QVQLVESGGRLVQAGGSLRLSCAASGSNLLWNTMGWYRQAPGKERELVAGITSGGNTYYADSVKGRFTISRDNAKNTVYLKMNSLKPEDTAVYYCSYYYWGQGTQVTVSS,low polyreactivity
4,QVQLVESGGGLVQAGGSLRLSCAASGSTFRRYAMGWYRQAPGKERELVATISSGGRTNYADSVKGRFTISRDNAKNTVYLQMNSLKPEDTAVYYCAARPYYYERSAGYYWGQGTQVTVSS,high polyreactivity
5,QVQLVESGGGLVQAGGSLRLSCAASGRIFTPYAMGWYRQAPRKERELVAVIRDGSTYYADSVKGRFTISRDNAKYNVYLQMKSLIPEDTAVYYCRYDIWVWWSGAYDYWGQGTQVTVSS,low polyreactivity
6,QVQLVESGGGLVQAGVSLRLSCAASGSLFSANAMGWYRQAPGKERELVASITGDGSTNYADSVKGRFTISRDNAMNTVYLQMNSLKPEDTAVYYCAADIGSWYDYWGQGTQVTVSS,low polyreactivity
7,QVQLVESGGGLVQAGGSLRLSCAASGSTFNGYTMGWYRQAPGKEREFVATITFSDGSTYYADSVKGRFTISRDNAKNTVYLQMNSLKPEDTAVYYCNVDSPIGYDYWGQGTQVTVSS,low polyreactivity
8,QVQLVESGGGLVQAGGSLRLSCAASGFIFAYYAMGWYRQAPGKETELVAAITWSGGRTYYADSVKGRFTISRDNSKNTVYLQMNSLKPEDTAVYYCNAVRPSVDYGYWGQGTQVTVSS,high polyreactivity
9,QVQLVESGGGLVQAGGSLRLSCSASGSIFAWYGRGWYRQSPGKESELVAAITSTGSTYYADSVKGRFTISRDNAKNTVYLQMTSLKPEDTAVYYCNAYYVYLWRPGVYWGQGTQVTVSS,low polyreactivity
10,QVQLVESGGGLVQAGGSLRLSCAASGRTFEGYTMGWYRQAPGKERELVSAISWSGARTYYADSVKGRFTISRDNAKNTVYLQMNSLKPEDTAVYYCAADRYWISLWYIMGYWGQGTQVTVSS,high polyreactivity
11,QVQIVESGGGLVQAGGSLRLSCAASGYIVRNAMGWYRQAPGKERELVAAISRRGGRTYYADSVKGRFTISRDNAKNTVYLQMHSLKPEDTAVYYCNKLPGTPRSLATGDYWGQGTQVTVSS,high polyreactivity
12,QVQLVESGGGLVQAGGSLRLSCAASGRIFRINAMGWYRQAPGKERELVASITSRAGSTYYADSVKGRFTISRDNAKNTVYLQMTSLKPEDTAVYDCAARSVYTYYRLDYWGQGSQVTVSS,high polyreactivity
13,QVQLVESGGGLVQAGGSLRLICAASGSIFDRYAMGWYRPAPGKDRELVAAITGSGGSTYYADSVKGRFRISRDNAKNTVYLQMNSLKPEDTAVYYGNARARGAYVRYGYWGQGTQVTVSS,high polyreactivity
14,QVQLVESGGGLVQAGGSLRLSCAASGRIFGNYAMGWYRQAPGKERELVAAISGGGSTYYADSVKGRFTISRDNAKNTVYLQLNSLKPEDTAVYYCAARFLWSVFGGKGGYWGQGTQVTVSS,low polyreactivity
15,QVQLVESGGGLVQAGGSLRLICAASGKTFSDYAMGWYRQAPGKERELVAAISSSGVRTYYADSVKGRFTISRDNAKNTVYLQMNSLKPEDTAVDDCNAGYVRRYYPASGYGYWGQGTHVTVSS,high polyreactivity
16,QVQLVESGGGLVQAGGSLRLSCAASGSIFDGNAMGWYRQAPGKERELVAAITNSGGSTYYADSVKGRFTISRDNAKNTVYLQMNSLKPEDTAVYYCNALPFAWRRYRWVRTMYYWGQGTQVTVSS,low polyreactivity
17,QVQLVESGGGLVQAGGSLRLSCAASGFIFTIYAMGWYRQAPGKERELVAAITWNGGRTYYADSVKGRFTISRDNAKNTVDLQMNSLKPEDTAVYYCAARYGRAYDYWGQGSQVTVSS,high polyreactivity
18,QVQLVESGGGLVQAGGSLRLSCAASGRIFRNYAMGWYRQAPGKERELVAAISSGGGSTYYADSVKGRFTISRDNAKNTVYLQMNSLKPEDTAVYYCNARYVYYGKFREYDYWGQGTQVTVSS,high polyreactivity
19,QVQLVESGGALVQAGGSLRLSCAASGSIFFENAMGWYRPAPGKERELVAAIRSGVDTYYADSVKGRFTLSRDNAKNTVYLQMNSLKPQDTAVYNCNADAYYYYAIWWSEVDYWGQGTQVTVSS,low polyreactivity
20,QVQLVESGGGLVQAGGSLRLSCAASGSSFTNYGMGWYRQAPGKERELVAAISESGDTTYYADSVKGRFTISRDNAKNTVYLQMNSLKPEDTAVYYCNRAHGRSRYSRDYDSWGQGTQVTVSS,low polyreactivity
21,QVQLVESGGGLVQAGGSLRLSCAASGFIFKRYAMGWYRQAPGKERELVAAITSSGGRTYYADSVKGRFTISRDNAKNTVYLQMISLKPEDTAVYYCAKGWSTYYTKMNYWGQGTQVTVSS,low polyreactivity
22,QVQLVESGGGLVQAGGSLRLSCAASGRTFIIYAMGWYRQAPGKERELVATISIGGSTYADSVKGRFTISRDNAKNTVYLQMNSLKPEDTAVYYCAARGRKYPPRDYWGQGPQVTVSS,high polyreactivity

row,Sequence,polyreactivity (PSR sort gate)
1,QVQLVESGGGLVQAGGSLRLSCAASGSILSTYAMGWYRQAPGKERELVASISSNAGSTYYADSVKGRFTISRDNAKNTVYLQMNSLKPEDTAVYYCATESYVEGDYWGQGTQVTVSS,low polyreactivity
2,QVQLVESCVVLVQAGGSLRLSCAASGSIFGYYAMGWYRQAPGKERELVAAISDGGTITYYADSVKGRFTISRDHAKNTVYLQMNSLKPEVTAVYYCAARSPPRYYEHRFYYWGQGTQVTVSS,high polyreactivity
3,QVQLVESGGGLVQAGGSLRLSCAASGFTFNANAMGWYRQAPGKERELVAVNTRSGGRTYYADSVKGRFTISRDNAKNTVYLQMNSLKPEDTAVYYCAKEGPSRVYQGTDSASDYWGQGTQVTVSS,high polyreactivity
4,QVQLVESGGGLVQAGGSLRLSCAASGRIFPVYAMGWYRQAPGKERELVAAISKRDGSTSYADSVKGRFTISRDNAKNTVYLEMNSLKPEDTAVYYCAATYLLERPTSIHPRYDYWGQGTQVTVSS,low polyreactivity
5,QVHLVESGGGVVQAGGSLRLSCAASGRIFPSYDRGWYRQAPGKERELVATISSRGDSTYYADSVKGRFTISRDNAKNTVYLQMNSLKPEDTAVYYCAAERPFWEYDYWGQGTQVTVSS,low polyreactivity
6,QVQLVESGGGLVQAGGSLRLSCAASGFIFFYYAMGWYRQAHGKERELVAAISASGGSTYYADSVKGRFTISRDNAKNTVYLQMNSLKPEDTAVYYCATDPISRARLYGQRDYWGQGTQVTVSS,high polyreactivity
7,QVQLVESGGGLVQAGGSLRLSCAASGSTFKFYTMGWYRQAPGKERELVATIDWSGGSTYYADSVKGRFTISRDNAKNTVYLQMNSLKPEDTAVYYCAAYSRSRTTRLGKYYYWGQGTQVTVSS,high polyreactivity
8,QVQLVESGGGLVQAGGSLRLSCAASGRTFYTYAMGWYRQAPGKEREFVAAIDWSGGTTYYADSVKGRFTISRDNAKNTVFLQINSLKPEDTAVYYCAADDSFYRQYYYRAHGDYWGQGYQVTVSS,low polyreactivity
9,QVQLVESGGGLVQAGGSLRLSCAASGRTFYGYAMGWYRQAPGKERELVAAISRRGGSTNYADSVKGRFTISRDNAQTTVYLQMNSLKPEDTAVYYCNKVVPHKPPTMDYWGQGTQVTVSS,high polyreactivity
10,QFQLVESGGGLVQPGGRLRLICAASGHNFPLNAMGWYRQAPGKERELVAAISRTGGSTYYADSVKGRFTISRDNAKFSVYLQMNSLKPEDTALYFCAKRGQACEDYWGEGTQVTVSS,high polyreactivity
11,QVQLVDSGGGLVQAGGSLRLSCAASGRIFIGYAMGWNRQAPWRERELVAAITSGGGTYYADSVKARFTISRDNAKNTVYLQMNSLKPEDTAVYFCAGAQRYPIKYYFWGQGTQVTVSS,low polyreactivity
12,QVQLVESGGGLVQAGGSLRLSCAASGRIFPISAMGWYRQAPGKERVLVAAIDSGGSTTYADSVKGRFTISRDNEKNTVYLQMNSLKPEDSADYYCAAKGAYPYWYPVGYRYDYWGQGTQVTVSS,low polyreactivity
13,QEQLQERAAWCRRAGSLRLSCAASGNISDYYFMGWYRQAPGKERELVAAIAPGSNTYYADSVKGRFTISRDNAKNTVYLQMNSLKPEDTAVCFCAANSTQYTWFDYWGQGTQVPVSS,low polyreactivity
14,QVQLVESGGGLIQAGGSLRLSCAASGSTFANNAMGWYRPAPGKERELVAAISYNGGSTYYADSVKGRFTISRDNAKNTVYLQMNSLKPEDTAVYYCAAYHFRAPSEYDYWGQGTQVTVSS,low polyreactivity
15,QVQLVESGGGLVQAGGSLRLSCAASGFTFVRNTMGWYRQAPGKERELVAAISRSGGSTYYADSVKGRFTISRDNAKNTVYLQMNSLKPEDTAVYYCNAYRYVHYDWGQGTQVTVSS,high polyreactivity
16,QVQLVESGGGLVQAGGSLRLSCAASGSMFYFYAMGWYRQAPGKERELVAAISWCDGDTYYADSVKGRFTISRDNAKNTVYLQMNSLKPEDSAVYYCAAEGLTRYYQYDYWGQGTQVTVSS,high polyreactivity
17,QVQLVESGGGLVQAGGSLRLSCSASGLIFGNYAMGWYRQAPGKERELVAAITSTGITYYADSVKGRFTISRDNAKNTVYLQMNSLKPEDTAVYYCAAASRFHPDRGGYWGQGTQVTVSS,low polyreactivity
18,QVQLVESGGGLVQAGGSLRLSCAASGLIFGYYAMGCYRQAPGKERELVAAISSSGSTYYADSVKGRFTISCDNEKNTVYLQMNSLKPEDTAVYYCNVDISSYGGDYWGQGTQVTVSS,low polyreactivity
19,QVQHVESGRGLVQAGGSLRLSCAASGFIFRLYAMGWYRQAPGKERELVAAISRGGSTTYADSVKGRFTISRDNAKNTVYLQMYSLKPEDTAVYYCATEGDLVAYLYDYWGQGTQVTVSS,low polyreactivity
20,QVQVVESGGGLVQAGGSLRLSCAASGSTFPGNAMGWYRQAPGKERDLVAAITSTGTTYYADSVKGRFTISRDNAKNTVYLQMNSLKPEDTAVYYWNADPSPDPSTFDYWGQGTLVTVSS,low polyreactivity
21,QVQLVESGGGLVQAVGSLRLSCAACGSIFYWNALGWYRQAPGKEREFVASIRKSGGSTNYADSVKGRFTISRDNAMNTVYLQMNSMKPEDSAVYDCAAYSYYRGPIYDYWGQGTQVTVSS,low polyreactivity
